{
  "source": "patent US20160356794A1",
  "about": "(Merck Sharp & Dohme, published 2016)",
  "binders": {"B1": {"name": "monoclonal antibody 19G10 (antibody, mouse IgG2b, V domains shown)", "VH": "QVTLKESGPGILQPSQTLSLTCSFSGFSLSTSGMGVGWIRQPSGKGLEWLAHIWWDDDKYYNAVLKSRLTISKDTSKNQVFLKIASVDTADTATYYCARIGIDGPYAMDYWGQGTSVTVSS", "VL": "DIVMSQSPSSLAVSIGEKVTMSCKSSQSLLYSNNQKNYLAWYQRKPGQSPKLLIYWASTRESGVPDRFTGSGSGTDFTLTITSVKAEDLAVYYCQQYYSYPLWTFGGGTKLEIK", "notes": "also called mAb 19G10; 19G10 mAb"}},
  "key": {"[1]": {"biological_target": "h-Tau 441 (human Tau isoform 2-441, Accession No. NP 005901.2) (human, UniProt P10636 2-758)", "sequence (P10636 other isoform, or with tags, fused parts or gaps limits assumed)": "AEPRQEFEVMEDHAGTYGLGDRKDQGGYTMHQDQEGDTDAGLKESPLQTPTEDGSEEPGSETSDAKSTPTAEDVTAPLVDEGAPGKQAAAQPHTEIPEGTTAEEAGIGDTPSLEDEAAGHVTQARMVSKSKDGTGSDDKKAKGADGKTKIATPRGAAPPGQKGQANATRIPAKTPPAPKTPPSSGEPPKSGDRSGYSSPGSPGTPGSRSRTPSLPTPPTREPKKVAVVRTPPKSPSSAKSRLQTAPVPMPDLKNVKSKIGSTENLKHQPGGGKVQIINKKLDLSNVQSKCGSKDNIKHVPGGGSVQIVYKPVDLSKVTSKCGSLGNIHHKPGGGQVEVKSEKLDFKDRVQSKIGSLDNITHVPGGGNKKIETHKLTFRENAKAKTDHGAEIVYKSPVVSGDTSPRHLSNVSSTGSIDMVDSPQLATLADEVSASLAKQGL", "assay": "SPR, BIAcore CM3 sensor chip, immobilized h-Tau 441", "protocol": "The binding affinity (Kd) of the 10H8 and 19G10 mAbs was determined by BIAcore CM3 sensor chip (Biacore, Piscataway, N.J.) using immobilized h-Tau 441 as the capture protein."}, "[2]": {"biological_target": "T1, PPAPKTPPSSGEPPK (human)", "T1 construct": "Synthetic peptide covalently immobilized on glass through a hydrophilic linker (RepliTope microarray)", "T1 peptide": "PPAPKTPPSSGEPPK", "assay": "RepliTope peptide microarray, immobilized 15-mer, fluorescent secondary antibody", "source_text": "(§1) Epitope mapping of clones 10H8 and 19G10 was completed using JPT Peptide Technologies' RepliTope™ peptide microarrays. This technology consists in using purified synthetic peptides chemoselectively and covalently immobilized to the glass surface. An optimized hydrophilic linker moiety is inserted between the glass surface and the antigen derived peptide sequence to avoid false negatives caused by sterical hindrance. The peptides used spanned Tau mid region protein sequence of 166 amino acids between amino acid 104 and amino acid 269 (Tau 166). Peptides of 15 amino acids in length that extended downstream either 1 or 2 amino acids at a time were used in this experiment.\n(§2) The assay was performed using an automated TECAN HS4X00 microarray processing station. Microarrays were washed, incubated with blocking buffer for 60 min at 30° C., and subsequently with clones […] and 19G10 diluted in blocking buffer for 120 min at 30° C. Microarrays were washed and incubated with secondary antibody diluted in blocking buffer for 45 min at 30° C. and then dried. The quantification was performed using high resolution fluorescence scanner. The resulting images were analyzed and quantified using spot-recognition software GenePix (Molecular Devices). For each spot, the mean signal intensity was extracted and expressed as arbitraty florescence units."}, "[3]": {"biological_target": "T2, APKTPPSSGEPPKSG (human)", "T2 construct": "Synthetic peptide covalently immobilized on glass through a hydrophilic linker (RepliTope microarray)", "T2 peptide": "APKTPPSSGEPPKSG", "assay": "RepliTope peptide microarray, immobilized 15-mer, fluorescent secondary antibody", "source_text": "as §1, §2"}, "[4]": {"biological_target": "T3, KTPPSSGEPPKSGDR (human)", "T3 construct": "Synthetic peptide covalently immobilized on glass through a hydrophilic linker (RepliTope microarray)", "T3 peptide": "KTPPSSGEPPKSGDR", "assay": "RepliTope peptide microarray, immobilized 15-mer, fluorescent secondary antibody", "source_text": "as §1, §2"}, "[5]": {"biological_target": "T4, PPSSGEPPKSGDRSG (human)", "T4 construct": "Synthetic peptide covalently immobilized on glass through a hydrophilic linker (RepliTope microarray)", "T4 peptide": "PPSSGEPPKSGDRSG", "assay": "RepliTope peptide microarray, immobilized 15-mer, fluorescent secondary antibody", "source_text": "as §1, §2"}, "[6]": {"biological_target": "T5, SSGEPPKSGDRSGYS (human, also: covalently immobilized on glass through a hydrophilic linker)", "T5 construct": "Synthetic peptide covalently immobilized on glass through a hydrophilic linker (RepliTope microarray)", "T5 peptide": "SSGEPPKSGDRSGYS", "assay": "RepliTope peptide microarray, immobilized 15-mer, fluorescent secondary antibody", "source_text": "as §1, §2"}, "[7]": {"biological_target": "T6, GEPPKSGDRSGYSSP (human)", "T6 construct": "Synthetic peptide covalently immobilized on glass through a hydrophilic linker (RepliTope microarray)", "T6 peptide": "GEPPKSGDRSGYSSP", "assay": "RepliTope peptide microarray, immobilized 15-mer, fluorescent secondary antibody", "source_text": "as §1, §2"}, "[8]": {"biological_target": "T7, PPKSGDRSGYSSPGS (human)", "T7 construct": "Synthetic peptide covalently immobilized on glass through a hydrophilic linker (RepliTope microarray)", "T7 peptide": "PPKSGDRSGYSSPGS", "assay": "RepliTope peptide microarray, immobilized 15-mer, fluorescent secondary antibody", "source_text": "as §1, §2"}, "[9]": {"biological_target": "T8, KSGDRSGYSSPGSPG (human)", "T8 construct": "Synthetic peptide covalently immobilized on glass through a hydrophilic linker (RepliTope microarray)", "T8 peptide": "KSGDRSGYSSPGSPG", "assay": "RepliTope peptide microarray, immobilized 15-mer, fluorescent secondary antibody", "source_text": "as §1, §2"}, "[10]": {"biological_target": "T9, GDRSGYSSPGSPGTP (human)", "T9 construct": "Synthetic peptide covalently immobilized on glass through a hydrophilic linker (RepliTope microarray)", "T9 peptide": "GDRSGYSSPGSPGTP", "assay": "RepliTope peptide microarray, immobilized 15-mer, fluorescent secondary antibody", "source_text": "as §1, §2"}, "[11]": {"biological_target": "T10, SSGEPPKSGDRSGYS (human, also: covalently immobilized on glass through a hydrophilic linker)", "T10 construct": "Synthetic peptide covalently immobilized on glass through a hydrophilic linker (RepliTope microarray)", "T10 peptide": "SSGEPPKSGDRSGYS", "assay": "RepliTope peptide microarray, immobilized 15-mer, fluorescent secondary antibody", "source_text": "as §1, §2"}, "[12]": {"biological_target": "T11, SGEPPKSGDRSGYSS (human, also: covalently immobilized on glass through a hydrophilic linker)", "T11 construct": "Synthetic peptide covalently immobilized on glass through a hydrophilic linker (RepliTope microarray)", "T11 peptide": "SGEPPKSGDRSGYSS", "assay": "RepliTope peptide microarray, immobilized 15-mer, fluorescent secondary antibody", "source_text": "as §1, §2"}, "[13]": {"biological_target": "T12, GEPPKSGDRSGYSSP (human)", "T12 construct": "Synthetic peptide covalently immobilized on glass through a hydrophilic linker (RepliTope microarray)", "T12 peptide": "GEPPKSGDRSGYSSP", "assay": "RepliTope peptide microarray, immobilized 15-mer, fluorescent secondary antibody", "source_text": "as §1, §2"}, "[14]": {"biological_target": "T13, EPPKSGDRSGYSSPG (human)", "T13 construct": "Synthetic peptide covalently immobilized on glass through a hydrophilic linker (RepliTope microarray)", "T13 peptide": "EPPKSGDRSGYSSPG", "assay": "RepliTope peptide microarray, immobilized 15-mer, fluorescent secondary antibody", "source_text": "as §1, §2"}, "[15]": {"biological_target": "T14, PPKSGDRSGYSSPGS (human)", "T14 construct": "Synthetic peptide covalently immobilized on glass through a hydrophilic linker (RepliTope microarray)", "T14 peptide": "PPKSGDRSGYSSPGS", "assay": "RepliTope peptide microarray, immobilized 15-mer, fluorescent secondary antibody", "source_text": "as §1, §2"}, "[16]": {"biological_target": "T15, PKSGDRSGYSSPGSP (human)", "T15 construct": "Synthetic peptide covalently immobilized on glass through a hydrophilic linker (RepliTope microarray)", "T15 peptide": "PKSGDRSGYSSPGSP", "assay": "RepliTope peptide microarray, immobilized 15-mer, fluorescent secondary antibody", "source_text": "as §1, §2"}, "[17]": {"biological_target": "T16, KSGDRSGYSSPGSPG (human)", "T16 construct": "Synthetic peptide covalently immobilized on glass through a hydrophilic linker (RepliTope microarray)", "T16 peptide": "KSGDRSGYSSPGSPG", "assay": "RepliTope peptide microarray, immobilized 15-mer, fluorescent secondary antibody", "source_text": "as §1, §2"}, "[18]": {"biological_target": "T17, SGDRSGYSSPGSPGT (human, also: covalently immobilized on glass through a hydrophilic linker)", "T17 construct": "Synthetic peptide covalently immobilized on glass through a hydrophilic linker (RepliTope microarray)", "T17 peptide": "SGDRSGYSSPGSPGT", "assay": "RepliTope peptide microarray, immobilized 15-mer, fluorescent secondary antibody", "source_text": "as §1, §2"}},
  "note": "No end group written: not given here.",
  "data": [
    {"binder": "B1", "values": [
      {"measurement": "Kd", "setting": "[1]", "result": 6.3, "unit": "nM"},
      {"measurement": "koff", "setting": "[1]", "result": 0.000176, "unit": "s⁻¹"},
      {"measurement": "kon", "setting": "[1]", "result": 25900, "unit": "M⁻¹ s⁻¹"},
      {"measurement": "Fluorescent Intensity", "setting": "[2]", "result": "892 arbitrary fluorescence units"},
      {"measurement": "Fluorescent Intensity", "setting": "[3]", "result": "761 arbitrary fluorescence units"},
      {"measurement": "Fluorescent Intensity", "setting": "[4]", "result": "55800 arbitrary fluorescence units"},
      {"measurement": "Fluorescent Intensity", "setting": "[5]", "result": "62000 arbitrary fluorescence units"},
      {"measurement": "Fluorescent Intensity", "setting": "[6]", "result": "62700 arbitrary fluorescence units"},
      {"measurement": "Fluorescent Intensity", "setting": "[7]", "result": "58000 arbitrary fluorescence units"},
      {"measurement": "Fluorescent Intensity", "setting": "[8]", "result": "53400 arbitrary fluorescence units"},
      {"measurement": "Fluorescent Intensity", "setting": "[9]", "result": "1810 arbitrary fluorescence units"},
      {"measurement": "Fluorescent Intensity", "setting": "[10]", "result": "588 arbitrary fluorescence units"},
      {"measurement": "Fluorescent Intensity", "setting": "[11]", "result": "55400 arbitrary fluorescence units"},
      {"measurement": "Fluorescent Intensity", "setting": "[12]", "result": "59700 arbitrary fluorescence units"},
      {"measurement": "Fluorescent Intensity", "setting": "[13]", "result": "58900 arbitrary fluorescence units"},
      {"measurement": "Fluorescent Intensity", "setting": "[14]", "result": "63100 arbitrary fluorescence units"},
      {"measurement": "Fluorescent Intensity", "setting": "[15]", "result": "58700 arbitrary fluorescence units"},
      {"measurement": "Fluorescent Intensity", "setting": "[16]", "result": "49600 arbitrary fluorescence units"},
      {"measurement": "Fluorescent Intensity", "setting": "[17]", "result": "1550 arbitrary fluorescence units"},
      {"measurement": "Fluorescent Intensity", "setting": "[18]", "result": "619 arbitrary fluorescence units"}
    ]}
  ]
}
